In data set [1] the target is blood coagulation factor 13 (Fibrogammin P) (UniProt P00488).
Another data set deals with fibrinogen (UniProt P02671).
fibrinogen, sequence (P02671 20-629, chain 1 of 3): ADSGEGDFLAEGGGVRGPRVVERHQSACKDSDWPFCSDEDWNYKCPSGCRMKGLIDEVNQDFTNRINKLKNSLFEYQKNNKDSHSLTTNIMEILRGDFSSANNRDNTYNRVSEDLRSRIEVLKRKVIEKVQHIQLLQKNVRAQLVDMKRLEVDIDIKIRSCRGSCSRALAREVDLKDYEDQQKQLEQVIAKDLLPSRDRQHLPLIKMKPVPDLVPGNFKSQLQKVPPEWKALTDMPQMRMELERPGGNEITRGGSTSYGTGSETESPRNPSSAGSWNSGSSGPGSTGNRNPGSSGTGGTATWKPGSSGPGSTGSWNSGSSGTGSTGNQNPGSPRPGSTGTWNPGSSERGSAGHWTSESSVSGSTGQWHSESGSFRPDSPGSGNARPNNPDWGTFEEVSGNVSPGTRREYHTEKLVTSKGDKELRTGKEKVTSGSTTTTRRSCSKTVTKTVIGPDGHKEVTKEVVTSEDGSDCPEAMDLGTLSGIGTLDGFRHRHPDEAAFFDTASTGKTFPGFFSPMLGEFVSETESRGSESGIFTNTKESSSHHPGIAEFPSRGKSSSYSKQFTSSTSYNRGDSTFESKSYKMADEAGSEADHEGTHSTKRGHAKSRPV
fibrinogen, sequence (chain, as listed by the source, chain 2 of 3): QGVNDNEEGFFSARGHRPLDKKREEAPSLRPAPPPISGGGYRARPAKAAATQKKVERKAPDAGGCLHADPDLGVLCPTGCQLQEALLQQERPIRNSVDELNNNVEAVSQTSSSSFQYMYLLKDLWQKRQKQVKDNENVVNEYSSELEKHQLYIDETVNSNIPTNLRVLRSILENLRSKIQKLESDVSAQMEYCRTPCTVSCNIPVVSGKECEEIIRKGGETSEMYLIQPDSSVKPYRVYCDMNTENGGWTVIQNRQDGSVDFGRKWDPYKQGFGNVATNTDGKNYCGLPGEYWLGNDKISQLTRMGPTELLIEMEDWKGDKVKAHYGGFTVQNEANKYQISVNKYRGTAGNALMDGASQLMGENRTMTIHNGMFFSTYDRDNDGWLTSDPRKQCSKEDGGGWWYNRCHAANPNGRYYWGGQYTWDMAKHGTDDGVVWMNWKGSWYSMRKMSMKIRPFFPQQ
fibrinogen, sequence (chain, as listed by the source, chain 3 of 3): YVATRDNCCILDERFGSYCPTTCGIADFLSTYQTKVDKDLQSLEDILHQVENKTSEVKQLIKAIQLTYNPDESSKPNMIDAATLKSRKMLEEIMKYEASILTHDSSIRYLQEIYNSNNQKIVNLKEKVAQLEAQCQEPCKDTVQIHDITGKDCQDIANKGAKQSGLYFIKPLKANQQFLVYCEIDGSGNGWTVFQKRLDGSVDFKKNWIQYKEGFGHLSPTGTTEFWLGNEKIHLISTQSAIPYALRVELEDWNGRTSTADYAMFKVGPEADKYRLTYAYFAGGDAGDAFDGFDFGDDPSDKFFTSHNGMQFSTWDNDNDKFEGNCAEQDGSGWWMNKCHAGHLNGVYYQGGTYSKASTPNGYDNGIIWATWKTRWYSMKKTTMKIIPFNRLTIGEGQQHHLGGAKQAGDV

blood coagulation factor 13 (Fibrogammin P), sequence (P00488 2-732, chain 1 of 2): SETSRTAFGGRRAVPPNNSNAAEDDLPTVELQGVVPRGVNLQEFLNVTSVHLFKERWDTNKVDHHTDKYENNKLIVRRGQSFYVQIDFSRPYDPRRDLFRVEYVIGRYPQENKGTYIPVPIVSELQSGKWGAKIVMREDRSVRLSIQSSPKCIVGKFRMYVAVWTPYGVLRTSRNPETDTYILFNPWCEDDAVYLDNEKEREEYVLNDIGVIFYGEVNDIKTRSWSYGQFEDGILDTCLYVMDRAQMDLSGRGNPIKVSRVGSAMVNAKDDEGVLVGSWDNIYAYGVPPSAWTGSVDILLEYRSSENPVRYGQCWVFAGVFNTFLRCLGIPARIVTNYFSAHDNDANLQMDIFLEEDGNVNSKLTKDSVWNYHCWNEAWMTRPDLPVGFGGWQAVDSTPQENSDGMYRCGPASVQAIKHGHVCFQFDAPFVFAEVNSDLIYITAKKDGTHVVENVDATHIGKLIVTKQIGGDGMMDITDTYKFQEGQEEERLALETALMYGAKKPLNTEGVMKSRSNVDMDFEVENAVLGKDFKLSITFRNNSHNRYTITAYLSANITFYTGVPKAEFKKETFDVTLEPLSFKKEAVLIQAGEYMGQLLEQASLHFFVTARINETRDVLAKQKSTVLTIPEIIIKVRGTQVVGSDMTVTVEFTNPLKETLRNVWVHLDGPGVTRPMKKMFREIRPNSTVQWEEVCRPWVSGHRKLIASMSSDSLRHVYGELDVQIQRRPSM
blood coagulation factor 13 (Fibrogammin P), sequence (chain, as listed by the source, chain 2 of 2): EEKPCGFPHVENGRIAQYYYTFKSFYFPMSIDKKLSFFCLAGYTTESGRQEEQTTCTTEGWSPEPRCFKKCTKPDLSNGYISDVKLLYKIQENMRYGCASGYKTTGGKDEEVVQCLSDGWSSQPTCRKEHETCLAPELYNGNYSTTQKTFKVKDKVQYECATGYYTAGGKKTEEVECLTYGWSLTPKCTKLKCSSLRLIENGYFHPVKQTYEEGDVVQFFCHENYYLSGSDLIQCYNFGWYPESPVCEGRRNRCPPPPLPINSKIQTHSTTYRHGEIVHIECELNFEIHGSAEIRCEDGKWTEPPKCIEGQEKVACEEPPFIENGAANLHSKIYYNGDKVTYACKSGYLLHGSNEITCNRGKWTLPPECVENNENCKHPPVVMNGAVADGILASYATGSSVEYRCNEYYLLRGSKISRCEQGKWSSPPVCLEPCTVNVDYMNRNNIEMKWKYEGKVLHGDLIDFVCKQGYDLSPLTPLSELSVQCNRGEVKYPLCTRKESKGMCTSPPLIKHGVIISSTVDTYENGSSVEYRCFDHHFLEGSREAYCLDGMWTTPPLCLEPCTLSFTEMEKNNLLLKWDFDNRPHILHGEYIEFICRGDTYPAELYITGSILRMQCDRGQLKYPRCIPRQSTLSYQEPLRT

Take “203A205G thrombin (glycine at position 203 in B chain substituted by alanine, serine at position 205 substituted by glycine)”: in data set [1], the “cleavage of FXIII A chain, SDS-PAGE (method B), 37°C” value was “No band of an A chain-activated product of FXIII was observed in the sample (lane 6) which was obtained after 3-hour incubation”. For the same substance, in the data set with fibrinogen, the “clot formation from Fbgn (method C), 37°C 3 hours” value is reported as “no clot formation was observed”. Consider “205A99N thrombin (serine 205 to alanine, aspartic acid 99 to asparagine in B chain)”, for which, in data set [1], the “cleavage of FXIII A chain, SDS-PAGE (method B), 37°C 3 hours” value (from here on “cleavage of FXIII A chain … 37°C 3 hours”) is given as “no band of an A chain-activated product of FXIII was observed”.

For “205T thrombin (serine at position 205 in B chain substituted by threonine)”, in data set [1], the “cleavage of FXIII A chain … 37°C 3 hours” value was “A chains of almost all FXIII were activated in a similar manner as that of the wild-type thrombin, and bands of cleaved FXIII were observed”. Still for that read-out and setting: to “205A43S thrombin (serine 205 to alanine, histidine 43 to serine in B chain)” belongs “no band of A chain-activated product of FXIII was observed”.

As to “203A205A thrombin (glycine 203 to alanine, serine 205 to alanine in B chain)”, the “cleavage of FXIII A chain, SDS-PAGE (method B), 37°C” value in data set [1] is reported as “No band of A chain-activated product of FXIII was observed even in lane 6 which was obtained after 3 hour-incubation”.

Regarding “205G43A thrombin (serine 205 to glycine, histidine 43 to alanine in B chain)”, the “cleavage of FXIII A chain … 37°C 3 hours” value in data set [1] is on record as “no band of an A chain-activated product of FXIII was observed”.

As for “203A thrombin (glycine at position 203 in B chain substituted by alanine)”, the “cleavage of FXIII A chain, SDS-PAGE (method B), 37°C” value in data set [1] is “The A chain of FXIII was observed to provide a cleaved product 30 minutes later, and more than half of the A chain was cleaved after three hours”. Further, in the data set with fibrinogen, the “clot formation from Fbgn (method C), 37°C 3 hours” value is given as “a clot was formed after three hours”. As to “203A205A99N thrombin (glycine 203 to alanine, serine 205 to alanine, aspartic acid 99 to asparagine in B chain)”, the “cleavage of FXIII A chain … 37°C 3 hours” value in data set [1] is listed as “no band of an A chain-activated product of FXIII was observed”. As for “205A thrombin (serine at position 205 in B chain substituted by alanine)”, the “cleavage of FXIII A chain, SDS-PAGE (method B), 37°C” value in data set [1] was “Even 3 hours later, no A chain of activated FXIII was observed as shown in lane 8”.

(Values after US20070282095.)
